Laboratory results taken from publication PMC5573156 (Developmental cell, 2017).
Like-named read-outs stand apart in the source and are kept apart here. Each block holds one molecule with its values, some of them ahead of it.

Legend:
[1] = target: microtubules polymerized from bovine brain tubulin (bovine) (UniProt Q6B856); assay: single-molecule TIRF motility assay
[2] = target: Kip3_(438) (S. cerevisiae) (UniProt P53086); assay: BLI
[3] = target: Kip3_(438)-L11^KHC (S. cerevisiae) (UniProt P53086); assay: BLI
[4] = target: Kip3_(448) (S. cerevisiae) (UniProt P53086); assay: BLI
[5] = target: bovine brain tubulin, unpolymerized (soluble αβ-tubulin dimer) (bovine) (UniProt Q6B856)
[6] = target: microtubules polymerized from bovine brain tubulin (bovine) (UniProt Q6B856); assay: single-molecule TIRF motility assay; remark: listed apart in the source
[7] = target: GTPγS-stabilized Tub1^D118A yeast microtubules (S. cerevisiae, UniProt P09733 1-447; P02557 1-457, D118A); assay: TIRF fluorescence intensity on immobilised microtubules
Sequence of GTPγS-stabilized Tub1^D118A yeast microtubules (P09733 whole entry D118A, chain 1 of 2): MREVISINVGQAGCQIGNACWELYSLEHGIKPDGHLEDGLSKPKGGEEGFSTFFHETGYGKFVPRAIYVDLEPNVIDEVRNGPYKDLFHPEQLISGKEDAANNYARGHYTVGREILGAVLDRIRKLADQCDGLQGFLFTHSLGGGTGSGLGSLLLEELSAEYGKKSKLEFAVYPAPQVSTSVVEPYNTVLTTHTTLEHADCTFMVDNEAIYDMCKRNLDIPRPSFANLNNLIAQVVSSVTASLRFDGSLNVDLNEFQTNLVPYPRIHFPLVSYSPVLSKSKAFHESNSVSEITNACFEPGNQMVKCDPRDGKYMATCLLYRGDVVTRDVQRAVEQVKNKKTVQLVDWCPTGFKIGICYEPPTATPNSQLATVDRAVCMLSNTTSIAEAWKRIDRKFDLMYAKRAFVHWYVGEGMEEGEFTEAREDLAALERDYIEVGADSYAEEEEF
Sequence of GTPγS-stabilized Tub1^D118A yeast microtubules (P02557 whole entry, stated change not applied, chain 2 of 2): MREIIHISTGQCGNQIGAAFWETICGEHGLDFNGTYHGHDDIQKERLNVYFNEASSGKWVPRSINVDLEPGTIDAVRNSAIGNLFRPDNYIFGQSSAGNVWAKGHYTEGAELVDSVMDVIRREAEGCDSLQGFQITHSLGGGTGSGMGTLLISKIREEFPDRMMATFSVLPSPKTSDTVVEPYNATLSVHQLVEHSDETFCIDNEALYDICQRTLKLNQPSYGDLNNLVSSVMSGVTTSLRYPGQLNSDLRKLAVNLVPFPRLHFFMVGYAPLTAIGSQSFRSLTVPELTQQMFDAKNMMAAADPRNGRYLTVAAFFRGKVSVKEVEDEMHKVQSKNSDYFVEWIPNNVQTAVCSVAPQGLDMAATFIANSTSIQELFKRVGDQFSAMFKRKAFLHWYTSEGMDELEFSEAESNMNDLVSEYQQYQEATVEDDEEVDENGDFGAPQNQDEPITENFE

[8] = target: microtubules polymerized from bovine brain tubulin (bovine) (UniProt Q6B856); assay: single-molecule TIRF motility assay; remark: listed apart in the source

Sequence of microtubules polymerized from bovine brain tubulin (bovine) (Q6B856 whole entry, looked up): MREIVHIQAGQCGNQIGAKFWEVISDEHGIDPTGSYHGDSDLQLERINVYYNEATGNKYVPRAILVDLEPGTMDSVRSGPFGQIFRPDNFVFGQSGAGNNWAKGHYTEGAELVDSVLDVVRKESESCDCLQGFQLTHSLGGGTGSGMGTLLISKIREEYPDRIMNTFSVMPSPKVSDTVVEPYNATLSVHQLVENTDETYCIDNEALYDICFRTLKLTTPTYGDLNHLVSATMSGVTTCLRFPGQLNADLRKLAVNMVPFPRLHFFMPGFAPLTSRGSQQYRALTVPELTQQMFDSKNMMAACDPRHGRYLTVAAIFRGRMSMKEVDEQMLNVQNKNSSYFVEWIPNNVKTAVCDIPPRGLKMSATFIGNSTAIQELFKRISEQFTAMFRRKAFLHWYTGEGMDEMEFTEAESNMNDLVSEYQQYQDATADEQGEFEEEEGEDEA

plus-end dwell time [1]: 9.3 s
Molecule: Kip3FL-L2^KHC (from UniProt P53086 1-805)

lifetime of the complex [2]: 48 s
fold change in tubulin binding affinity, Kip3 438 over Kip3 438-L11KHC [3]: 7 fold
residence time (koff^-1) with ADP [4]: 35.7 s
Molecule: bovine brain tubulin, unpolymerized (soluble αβ-tubulin dimer) (from UniProt Q6B856 1-445) (complex)

steady-state ATPase: decrease of the KM for tubulin against kinesin-1 [5]: 9.4 fold
Molecule: KHC560-L11^Kip3 (from UniProt P33176 1-560)

plus-end residence time [1]: 52.1 s
Molecule: KHC560 with Kip3 Loop11 and Loop2 (from UniProt P33176 1-560)

plus-end dwell time [6]: 38.2 s
binding result [7]: binds
plus-end dwell time [8]: 52.9 s
B1: Kip3FL (full-length Kip3, budding yeast kinesin-8) (natural protein, S. cerevisiae, UniProt P53086 1-805, looked up)
chain: MNVPETRQSSIVVAIRVRPFTSMEKTRLVNEASGAEANFPGLGDSSLILPMSNNSDSDIDIDAEEGSTRSKRNSLLRRKVIRPEGIRKIVDCVDDRMLIFDPADRNPLNKVSDQVLNSMRARATKATASSINNSNATNKFSSQRRRHGGEIKFVFDKLFDETSSQARVYKETTSPLLDSVLDGFNSTVFAYGATGCGKTYTVSGTPSQPGIIFLAMEELFNKITDLKDEKDFEISLSYLEIYNERIRDLLKPETPSKRLVIREDTQNHIKVANLSYHHPNTVEDVMDLVVQGNINRTTSPTEANEVSSRSHAVLQIHIMQTNKLVDLTSQHTFATLSIIDLAGSERAAATRNRGIRLHEGANINRSLLALGNCINALCLNDGSRSCHIPYRDSKLTRLLKFSLGGNCKTVMIVCISPSSSHYDETLNTLKYANRAKEIKTKIIRNQQSLSRHVGSYLKMITEQKRQIEELREREEKMISLKLTKYKLNKEKIQLAINECVNRVQQTYAGVETYQVAKTLKSLILCKRRFLQMVKLEVDNLILLFEREESTAAEMQPVISNCRMISGQLYNKIHELEMKFDETDTLSSVIHQVHSIDLNKLREMEDWDETYDLVYLESCLNQISELQRNEILVNSSIMTEKLMSDPGLNSRFKFLSKWLMNRTPNIESIIQDLVHIDEEFESFARTFIANPDSNFTNTNINIINTTAADLAVPAETLQRQNFSQKKVKWTSPDLSPSPMIEPQPELEPELHQDQDAIASEVDVSMQDTTFNEQGPSTPSAPTTAVPRRKMRSSLLTHQSLLATARK
modifications: TMR (HALO-TMR) on the HALO tag where labelled
